Assay results as given in article PMC12421856 (mBio, 2025).

B1: pT1679 Fab (Fab, V domains shown)
VH: QVQLVQSGAEVKKPGSSVKVSCRASGGTFSSYAISWVRQAPGQGLEWMGTIIPVFGAPDYAQKFQGRVTITADESTSTAYMEVRSLRSEDTAVYYCARDASPYYYDRSGYPRWAEDLHHWGQGTMVTVSS
VL: QSVLTQPPSVSGAPGQRVTISCTGSSSNIGAGYDVHWYQQLPGTAPKLLIYGNSNRPSGVPDRFSGSKSGTSGSLAISGLQPEDEADYYCQSYDSSLSGSIFGGGTKLTVL
notes: also called Fab fragment of pT1679; source: Drosophila S2 cells, purified (Strep-Tactin XT, SEC)
B2: pT1679 Fab (Fab, V domains shown)
VH: B1 VH
VL: B1 VL
notes: source: Drosophila S2 cells, purified (Strep-Tactin XT, SEC)

How the values were obtained:
Settings in all cases: both partners purified
[1] = biological target: trimeric SARS-CoV-2 S ectodomain (insect cell-expressed) (SARS-CoV-2 Wuhan-Hu-1 (MN908947), UniProt P0DTC2, stabilised); assay: SPR
[2] = biological target: trimeric SARS-CoV-2 S ectodomain (insect cell-expressed) (SARS-CoV-2 Wuhan-Hu-1 (MN908947), UniProt P0DTC2, stabilised); assay: SPR; remark: listed apart in the source
SARS-CoV-2 S HexaPro = SARS-CoV-2 S HexaPro (SARS-CoV-2 Wuhan-Hu-1, HexaPro, stabilised); assay: cryo-EM structure

Binder | fold higher affinity than for the RBD [1] [fold] | Kd [2] [nM] | koff [2] [s⁻¹] | kon [2] [M⁻¹ s⁻¹] | stoichiometry N (SARS-CoV-2 S HexaPro)
B1 | ~3 | – | – | – | –
B2 | – | 0.13 | 0.00012 | 900000 | 3 pT1679 molecules per trimeric S protein
